Here are results for one molecule from article PMC4887914, “The Sp1-mediaded allelic regulation of MMP13 expression by an ESCC susceptibility SNP rs2252070”.

The series concerns the target Sp1 (UniProt P08047 2-785). Kind of series: EMSA; recombinant Sp1; supershift with Sp1 antibody; LightShift Chemiluminescent EMSA kit (Pierce), 25 °C, 20 min, 6% PAGE; 100-fold unlabeled competitor; buffer, salt and pH not stated. To be noted: protein: commercial; label: 3' biotin; blunt. In general terms: Mobility shift assays separate free from complexed probe on a gel.

Sp1, sequence (P08047 2-785): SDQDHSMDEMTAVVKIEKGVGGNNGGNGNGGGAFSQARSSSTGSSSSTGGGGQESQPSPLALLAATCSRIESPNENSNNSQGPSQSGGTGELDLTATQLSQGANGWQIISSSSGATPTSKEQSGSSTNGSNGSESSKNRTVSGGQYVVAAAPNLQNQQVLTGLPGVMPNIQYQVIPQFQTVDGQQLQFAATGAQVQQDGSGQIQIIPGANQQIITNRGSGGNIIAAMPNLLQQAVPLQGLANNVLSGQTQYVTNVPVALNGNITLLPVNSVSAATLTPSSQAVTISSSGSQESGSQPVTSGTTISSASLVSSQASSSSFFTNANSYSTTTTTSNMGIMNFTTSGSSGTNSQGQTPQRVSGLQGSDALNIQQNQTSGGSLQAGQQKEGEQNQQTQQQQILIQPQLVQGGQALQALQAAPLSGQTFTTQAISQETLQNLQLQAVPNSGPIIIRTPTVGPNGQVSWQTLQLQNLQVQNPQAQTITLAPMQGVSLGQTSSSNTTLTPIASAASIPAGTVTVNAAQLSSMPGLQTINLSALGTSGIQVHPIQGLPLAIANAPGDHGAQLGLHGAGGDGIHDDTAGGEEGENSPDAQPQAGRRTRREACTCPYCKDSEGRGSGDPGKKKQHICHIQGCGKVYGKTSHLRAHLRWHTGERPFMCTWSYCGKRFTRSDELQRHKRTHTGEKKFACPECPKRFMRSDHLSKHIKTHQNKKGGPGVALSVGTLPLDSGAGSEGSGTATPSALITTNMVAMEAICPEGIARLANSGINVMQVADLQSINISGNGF

B1: MMP13 rs2252070G probe (dsDNA)
DNA 1: CCTTCAAGTGACTGGGAAGTGGAAACCT
DNA 2: AGGTTTCCACTTCCCAGTCACTTGAAGG
For the molecule B1, the binding result is on record as “binds”.
